Measurements: article PMC10397247

Experiments:
Assay in all cases: two-hybrid library CCNG1;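 also: natural log of median RNA to DNA barcode read ratio; higher means stronger binding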
4H754-bN = target: T1, 4H754-bN
T1 chain: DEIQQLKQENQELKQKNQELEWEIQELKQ

4H918-bN = target: T2, 4H918-bN
T2 chain: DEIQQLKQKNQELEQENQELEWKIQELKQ

4H3606-bN = target: T3, 4H3606-bN
T3 chain: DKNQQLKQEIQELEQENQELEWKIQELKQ

4H797-bN = target: T4, 4H797-bN
T4 chain: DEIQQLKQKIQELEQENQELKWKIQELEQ

4H3843-bN = target: T5, 4H3843-bN
T5 chain: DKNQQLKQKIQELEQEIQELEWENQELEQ

4H3185-bN = target: T6, 4H3185-bN
T6 chain: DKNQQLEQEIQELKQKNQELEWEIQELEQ

4H4001-bN = target: T7, 4H4001-bN
T7 chain: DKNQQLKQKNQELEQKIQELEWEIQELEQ

4H3189-bN = target: T8, 4H3189-bN
T8 chain: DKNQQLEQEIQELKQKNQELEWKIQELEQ

4H3354-bN = target: T9, 4H3354-bN
T9 chain: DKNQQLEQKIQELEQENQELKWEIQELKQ

4H2618-bN = target: T10, 4H2618-bN
T10 chain: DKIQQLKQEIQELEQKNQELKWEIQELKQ

4H338-bN = target: T11, 4H338-bN
T11 chain: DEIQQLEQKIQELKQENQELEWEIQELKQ

4H3427-bN = target: T12, 4H3427-bN
T12 chain: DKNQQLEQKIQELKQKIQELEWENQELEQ

4H607-bN = target: T13, 4H607-bN
T13 chain: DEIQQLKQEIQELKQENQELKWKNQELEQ

4H687-bN = target: T14, 4H687-bN
T14 chain: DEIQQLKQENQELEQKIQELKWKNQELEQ

4H2610-bN = target: T15, 4H2610-bN
T15 chain: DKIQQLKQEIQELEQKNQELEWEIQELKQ

4H2576-bN = target: T16, 4H2576-bN
T16 chain: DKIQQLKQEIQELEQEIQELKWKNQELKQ

4H908-bN = target: T17, 4H908-bN
T17 chain: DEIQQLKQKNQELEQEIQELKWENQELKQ

4H3855-bN = target: T18, 4H3855-bN
T18 chain: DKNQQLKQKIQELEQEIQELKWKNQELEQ

4H462-bN = target: T19, 4H462-bN
T19 chain: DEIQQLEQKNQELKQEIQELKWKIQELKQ

4H717-bN = target: T20, 4H717-bN
T20 chain: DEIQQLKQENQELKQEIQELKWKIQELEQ

4H454-bN = target: T21, 4H454-bN
T21 chain: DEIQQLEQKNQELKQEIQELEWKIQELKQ

4H949-bN = target: T22, 4H949-bN
T22 chain: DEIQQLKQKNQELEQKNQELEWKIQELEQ

4H953-bN = target: T23, 4H953-bN
T23 chain: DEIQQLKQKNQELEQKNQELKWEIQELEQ

4H370-bN = target: T24, 4H370-bN
T24 chain: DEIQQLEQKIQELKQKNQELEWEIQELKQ

4H2667-bN = target: T25, 4H2667-bN
T25 chain: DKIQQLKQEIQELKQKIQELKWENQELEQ

4H568-bN = target: T26, 4H568-bN
T26 chain: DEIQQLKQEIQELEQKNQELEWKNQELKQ

4H331-bN = target: T27, 4H331-bN
T27 chain: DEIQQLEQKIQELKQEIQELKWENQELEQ

4H883-bN = target: T28, 4H883-bN
T28 chain: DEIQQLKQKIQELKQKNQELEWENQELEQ

4H3782-bN = target: T29, 4H3782-bN
T29 chain: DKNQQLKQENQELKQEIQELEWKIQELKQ

4H2729-bN = target: T30, 4H2729-bN
T30 chain: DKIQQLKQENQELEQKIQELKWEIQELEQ

4H72-bN = target: T31, 4H72-bN
T31 chain: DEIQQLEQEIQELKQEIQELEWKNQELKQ

4H3112-bN = target: T32, 4H3112-bN
T32 chain: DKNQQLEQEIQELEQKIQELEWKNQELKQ

4H2697-bN = target: T33, 4H2697-bN
T33 chain: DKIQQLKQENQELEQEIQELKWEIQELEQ

4H967-bN = target: T34, 4H967-bN
T34 chain: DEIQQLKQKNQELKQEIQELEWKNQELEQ

B1: 4H2576-bN (peptide)
chain: DKIQQLKQEIQELEQEIQELKWKNQELKQ
- interaction score (4H754-bN): 0.456
- interaction score (4H918-bN): -1.21
- interaction score (4H3606-bN): -0.101
- interaction score (4H797-bN): -2.07
- interaction score (4H3843-bN): -0.264
- interaction score (4H3185-bN): 0.148
- interaction score (4H4001-bN): 0.0889
- interaction score (4H3189-bN): 0.118
- interaction score (4H3354-bN): -1.26
- interaction score (4H2618-bN): 0.876
- interaction score (4H338-bN): 0.787
- interaction score (4H3427-bN): -2.5
- interaction score (4H607-bN): -0.239
- interaction score (4H687-bN): -0.515
- interaction score (4H2610-bN): -0.395
- interaction score (4H2576-bN): 1.12
- interaction score (4H908-bN): -0.577
- interaction score (4H3855-bN): 1.04
- interaction score (4H462-bN): 0.0924
- interaction score (4H717-bN): -0.909
- interaction score (4H454-bN): -0.887
- interaction score (4H949-bN): 0.288
- interaction score (4H953-bN): -1.09
- interaction score (4H370-bN): 0.65
- interaction score (4H2667-bN): 1.21
- interaction score (4H568-bN): -0.0699
- interaction score (4H331-bN): 1.55
- interaction score (4H883-bN): 1.47
- interaction score (4H3782-bN): -0.233
- interaction score (4H2729-bN): 1.74
- interaction score (4H72-bN): 1.58
- interaction score (4H3112-bN): -0.405
- interaction score (4H2697-bN): -0.235
- interaction score (4H967-bN): -1.08
